# Reference: patent publication US20240180966A1 (YEDA RESEARCH AND DEVELOPMENT, published 2024)
# T1: NRAS Q61K (RAS.Q61K; the sequence is shared by NRAS, KRAS and HRAS) peptide on HLA-A*01:01 (human)
# T1 peptide: ILDTAGKEEY
# T2: NRAS Q61R (RAS.Q61R) peptide on HLA-A*01:01 (human)
# T2 peptide: ILDTAGREEY
# T3: NRAS wild-type (Q61) peptide on HLA-A*01:01 (human)
# T3 peptide: ILDTAGQEEY
# What was measured:
# [1] = target: T1, NRAS Q61K (RAS.Q61K; the sequence is …); experiment: multimer staining
# [2] = target: T2, NRAS Q61R (RAS.Q61R) peptide on …; experiment: activation reporter or marker
# [3] = target: T3, NRAS wild-type (Q61) peptide on …; experiment: cytokine release
# HLA-A*01:01 [4] = target: T4, HLA-A*01:01 (human); experiment: HLA-peptidomics (W6/32 immunoaffinity, LC-MS/MS) of HLA-A*01:01 mono-allelic 721.221 cells with a RAS.Q61K minigene
# T4 construct: whole, on cells; also called HLA allele A*01:01
# Procedure: Focusing on RAS.Q61K, we therefore set out to unbiasedly query the HLA-A*01:01-bound neoantigen landscape. […] This overexpression setup has the advantages of availability and neoantigen-amplification, while still maintaining native antigen processing and presentation. Mass-spectrometry (MS) results were analyzed using MaxQuant and queried against the human proteome dataset (Uniprot), to which we manually added the minigene sequence.
# HLA-A*01:01 [5] = target: T4, HLA-A*01:01; experiment: HLA-peptidomics (targeted MS) of HLA-A*01:01 mono-allelic 721.221 cells with a RAS.Q61R minigene
Binder,binding result [1],binding result [2],binding result [3],binding result (HLA-A*01:01 [4]),binding result (HLA-A*01:01 [5])
N17.2 (TCR) alpha TRAV5 TRAJ9 CDR3: CAESSGGGFKTIF beta TRBV6-6 TRBJ2-7 CDR3: CASSTPGPSAYEQYF,recognises,no recognition,no recognition,–,–
ILDTAGKEEY (also called RAS.Q61K-derived neopeptide) [ILDTAGKEEY (SEQ ID NO: 1) neopeptide],–,–,–,binds,–
ILDTAGREEY (also called RAS.Q61R-derived neopeptide) [ILDTAGREEY (SEQ ID NO: 34) neopeptide],–,–,–,–,binds
N17.3.2 (TCR) alpha TRAV19 TRAJ17 CDR3: CALSESGDAAGNKLTF beta TRBV6-1 TRBJ1-1 CDR3: CAEGENTEAFF,recognises,no recognition,no recognition,–,–

# Next, values leading:
binding result [1],binding result [2],binding result [3],binding result (HLA-A*01:01 [4]),binding result (HLA-A*01:01 [5]),Binder
recognises,no recognition,no recognition,–,–,N135.1 (TCR) alpha TRAV19 TRAJ39 CDR3: CALSESHNNAGNMLTF beta TRBV6-1 TRBJ1-1 CDR3: CAASQNTEAFF
recognises,–,no recognition,–,–,NH2 (TCR) alpha TRAV19 TRAJ39 CDR3: CALSETINNAGNMLTF beta TRBV6-1 TRBJ1-1 CDR3: CAASQNTEAFF
